# Measurements published in patent publication US6593454B2, “Methods for identifying inhibitors of methionine aminopeptidases” (Saint Louis University, priority 1999, dated 2003).
# B1: yeast type 1 MAP (Saccharomyces cerevisiae S288C) (protein)
# chain: MSTATTTVTTSDQASHPTKIYCSGLQCGRETSSQMKCPVCLKQGIVSIFCDTSCYENNYKAHKALHNAKDGLEGAYDPFPKFKYSGKVKASYPLTPRRYVPEDIPKPDWAANGLPVSEQRNDRLNNIPIYKKDQIKKIRKACMLGREVLDIAAAHVRPGITTDELDEIVHNETIKRGAYPSPLNYYNFPKSLCTSVNEVICHGVPDKTVLKEGDIVNLDVSLYYQGYHADLNETYYVGENISKEALNTTETSRECLKLAIKMCKPGTTFQELGDHIEKHATENKCSVVRTYCGHGVGEFFHCSPNIPHYAKNRTPGVMKPGMVFTIEPMINEGTWKDMTWPDDWTSTTQDGKLSAQFEHTLLVTEHGVEILTARNKKSPGGPRQRIK
# B2: human type 2 MAP (Homo sapiens) (protein)
# chain: MAGVEEVAASGSHLNGDLDPDDREEGAASTAEEAAKKKRRKKKKSKGPSAAGEQEPDKESGASVDEVARQLERSALEDKERDEDDEDGDGDGDGATGKKKKKKKKKRGPKVQTDPPSVPICDLYPNGVFPKGQECEYPPTQDGRTAAWRTTSEEKKALDQASEEIWNDFREAAEAHRQVRKYVMSWIKPGMTMIEICEKLEDCSRKLIKENGLNAGLAFPTGCSLNNCAAHYTPNAGDTTVLQYDDICKIDFGTHISGRIIDCAFTVTFNPKYDTLLKAVKDATNTGIKCAGIDVRLCDVGEAIQEVMESYEVEIDGKTYQVKPIRNLNGHSIGQYRIHAGKTVPIVKGGEATRMEEGEVYAIETFGSTGKGVVHDDMECSHYMKNFDVGHVPIRLPRTKHLLNVINENFGTLAFCRRWLDRLGESKYLMALKNLCDLGIVDPYPPLCDIKGSYTAQFEHTILLRPTCKEVVSRGDDY
# Legend:
# [1] = substrate: CSCC[C@H](N)C(=O)NCC(=O)N1CCC[C@H]1C(=O)Nc1ccc([N+](=O)[O-])cc1; test: AccQ-Tag assay, kinetic parameters of the substrate peptide with type 1 MAP; type: biochemical; settings: other: yeast type 1 MAP; substrate Met-Gly-Pro-p-nitroanilide; mean ± SD
# From the text: (§1) To determine whether Met-Gly-Pro-p-nitroanilide is a substrate for MAP, and whether the presence of dipeptidyl peptidase could affect the activity of MAP, an AccQ-Tag assay was used as described in Zuo et al., supra.
# [2] = substrate: CSCC[C@H](N)C(=O)NCC(=O)N1CCC[C@H]1C(=O)Nc1ccc([N+](=O)[O-])cc1; test: AccQ-Tag assay, kinetic parameters of the substrate peptide with type 2 MAP; type: biochemical; settings: other: human type 2 MAP; substrate Met-Gly-Pro-p-nitroanilide; mean ± SD
# From the text: as §1
Protein,Km [1],kcat [1],kcat/Km [1],Km [2],kcat [2],kcat/Km [2]
B1,4 ± 0.7 mM,14.4 ± 0.417 s⁻¹,3600 ± 583 M⁻¹ s⁻¹,–,–,–
B2,–,–,–,3 ± 0.5 mM,8.63 ± 0.583 s⁻¹,2870 ± 433 M⁻¹ s⁻¹
